pKd: −log10 of the molar value.
Assays:
PH domain of PDK1 = PH domain of PDK1 (UniProt O15530); assay: SPR
PH domain of AKT = PH domain of AKT (UniProt P31749); assay: SPR

UniProt O15530, sequence (O15530 459-550): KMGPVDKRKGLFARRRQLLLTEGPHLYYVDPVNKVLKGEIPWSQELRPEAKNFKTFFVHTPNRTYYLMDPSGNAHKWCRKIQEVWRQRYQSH

pKd (PH domain of PDK1): 7.30 | pKd (PH domain of AKT): 7.42
Substance: PH domain of AKT (from UniProt P31749 5-108) (domain or fragment)

— paper PMC4091980
